From paper PMC5036643
Where two headings read alike, the source gives them in different places.

Tests used:
Test in all cases: single-molecule bead assay
[1] = molecular target: Microtubules of porcine brain tubulin, tetramethylrhodamine-labelled, taxol-stabilised (porcine) (UniProt P02550)
[2] = molecular target: Microtubules of porcine brain tubulin, tetramethylrhodamine-labelled, taxol-stabilised (porcine) (UniProt P02550); remark: listed apart in the source
[3] = molecular target: Microtubules of porcine brain tubulin, tetramethylrhodamine-labelled, taxol-stabilised (porcine) (UniProt P02550); remark: listed apart in the source
[4] = molecular target: Microtubules of porcine brain tubulin, tetramethylrhodamine-labelled, taxol-stabilised (porcine) (UniProt P02550); remark: listed apart in the source
[5] = molecular target: Microtubules of porcine brain tubulin, tetramethylrhodamine-labelled, taxol-stabilised (porcine) (UniProt P02550); remark: listed apart in the source
[6] = molecular target: Microtubules of porcine brain tubulin, tetramethylrhodamine-labelled, taxol-stabilised (porcine) (UniProt P02550); remark: listed apart in the source
[7] = molecular target: Microtubules of porcine brain tubulin, tetramethylrhodamine-labelled, taxol-stabilised (porcine) (UniProt P02550); remark: listed apart in the source
[8] = molecular target: Microtubules of porcine brain tubulin, tetramethylrhodamine-labelled, taxol-stabilised (porcine) (UniProt P02550); remark: listed apart in the source

Substance: Conventional kinesin (native, from bovine brain) (complex)
- average duration (time between attachment and detachment) [1]: 0.92 s
- average duration (time between attachment and detachment) [2]: 0.8 s
- average duration (time between attachment and detachment) [3]: 0.69 s
- average duration (time between attachment and detachment) [4]: 1.53 s
- average duration (time between attachment and detachment) [5]: 1.11 s
- average duration (time between attachment and detachment) [6]: 1.01 s
- average duration (time between attachment and detachment) [7]: 1.19 s
- average duration (time between attachment and detachment) [8]: 1.03 s
